Consider three molecules from patent US20050136053A1 (DYAX, published 2005).

Positions count from the first letter of the chain named.

Test [1] deals with T1, endogenous human Tie1 (primary human endothelial cells, HUVEC, human tissue sections, SW480 cells) (human, UniProt P35590 25-1138).
T1 construct: also called endogenous Tie1; HDMEC
Kind of test: immunofluorescence, HDMEC.

For test [2], the target named is T2, V5-tagged full length human Tie1 expressed in COS1 cells (pcDNA3-Tie1-V5) (human, UniProt P35590 25-1138).
T2 construct: Cell lysates in Western blot and immunoprecipitation, fixed cells in immunofluorescence; also called Tie1-transfected; transfected Tie1
Kind of test: Western blot, Tie1-V5-transfected COS1 cells. As to the method:
(§1) COS1 cells were transfected with pcDNA3-Tie1-V5 (1 μg DNA per 10 cm cell culture plate) using FUGENE 6 (Roche) according to manufacturer's instruction and incubated for 48 h before stimulation. For immunoprecipitation, Tie1 transfected cells and HMVEC cells were lysed in DOC-RIPA lysis buffer (50 mM Tris-HCl pH 8.0, 150 mM NaCl, 1% Triton-X-100, 0.1% SDS, 1% DOC, 10 mM EDTA) supplemented with aprotinin, leupeptin, PMSF and sodium vanadate. Immunoprecipitation was carried out from equal amount of cell lysates by incubating with polyclonal anti-human Tie1 antibodies (R&D), monoclonal anti-V5 antibodies (Invitrogen) or altogether 23 anti-Tie1 antibodies (1 μg/ml) for 1 to 2 h followed by incubation with protein G-Sepharose (Amersham Pharmacia Biotech AB) for 1 h. The immunoprecipitates were washed twice with PBS-T and twice with PBS, followed by elution with the Laemmli buffer and separation in 8% SDS-PAGE. The blots were probed with the 23 anti-Tie1 antibodies (5 μg/ml) and subsequently anti-human Fc antibodies conjugated with HRP.
(§2) Next, to find out if the anti-Tie1 antibodies recognize Tie1 in living cells, those cells were studied by immunofluorescence staining.
For orientation: A western blot detects proteins with antibodies after separation by electrophoresis.

Test [3] has as its target T1, endogenous human Tie1 (primary human …). Kind of test: Western blot, HDMEC; Western blot, HDMEC. How it is done:
as §1, §2

T1 sequence (P35590 25-1138): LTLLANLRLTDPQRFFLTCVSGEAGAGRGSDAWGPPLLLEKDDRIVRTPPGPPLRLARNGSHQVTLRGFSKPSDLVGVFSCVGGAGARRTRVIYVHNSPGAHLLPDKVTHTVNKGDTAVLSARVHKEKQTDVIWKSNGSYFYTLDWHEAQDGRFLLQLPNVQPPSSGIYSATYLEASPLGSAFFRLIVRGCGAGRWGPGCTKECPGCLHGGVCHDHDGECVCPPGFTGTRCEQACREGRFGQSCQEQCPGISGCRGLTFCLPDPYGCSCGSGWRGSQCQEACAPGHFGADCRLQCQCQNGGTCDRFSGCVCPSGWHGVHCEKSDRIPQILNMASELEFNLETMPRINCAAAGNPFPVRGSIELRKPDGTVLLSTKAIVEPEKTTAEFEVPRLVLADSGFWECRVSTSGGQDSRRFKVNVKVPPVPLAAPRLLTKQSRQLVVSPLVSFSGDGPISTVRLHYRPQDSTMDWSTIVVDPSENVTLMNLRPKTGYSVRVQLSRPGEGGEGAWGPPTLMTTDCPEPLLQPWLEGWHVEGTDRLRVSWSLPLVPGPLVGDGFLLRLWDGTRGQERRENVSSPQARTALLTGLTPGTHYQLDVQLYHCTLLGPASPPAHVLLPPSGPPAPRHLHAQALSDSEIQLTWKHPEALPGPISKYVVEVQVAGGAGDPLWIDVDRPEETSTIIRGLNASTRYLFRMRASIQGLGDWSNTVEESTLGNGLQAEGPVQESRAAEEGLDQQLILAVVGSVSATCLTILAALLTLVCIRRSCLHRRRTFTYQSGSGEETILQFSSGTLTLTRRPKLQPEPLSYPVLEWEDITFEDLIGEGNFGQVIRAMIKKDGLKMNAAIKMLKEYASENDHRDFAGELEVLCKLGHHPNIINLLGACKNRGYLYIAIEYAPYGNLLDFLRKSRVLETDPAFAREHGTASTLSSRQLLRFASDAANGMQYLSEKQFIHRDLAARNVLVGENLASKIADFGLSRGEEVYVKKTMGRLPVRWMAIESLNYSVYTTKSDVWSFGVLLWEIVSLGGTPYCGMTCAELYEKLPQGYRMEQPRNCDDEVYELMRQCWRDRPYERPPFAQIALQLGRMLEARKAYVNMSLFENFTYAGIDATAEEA
T2 sequence (P35590 25-1138): as above

B1: anti-Tie1 antibody G2, IgG (antibody, V domains shown)
VH: EVQLLESGGGLVQPGGSLRLSCAASGFTFSSYKMGWVRQAPGRGLEWVSSIYPSGGWTHYADSVKGRFTISRDNSKNTLYLQMNSLRAEDTAVYYCARVLLHYFDYWGQGTLVTVSS
VL: QSVLTQPASVSGSPGQSITISCTGTSSDVGGYKYVSWYQQHPGKAPKLIISDVNNRPSGVSDRFSGSKSGNTASLTISGLQAEDDGDYYCSSYASSSYTSSTTWVFGG
notes: VL entry is lambda and stops within FR4
For B1, the binding result in test [1] and in test [2] was “binds” throughout.

B2: anti-Tie1 antibody s-B2, IgG (antibody, V domains shown)
VH: EVQLLESGGGLVQPGGSLRLSCAASGFTFSIYGMAWVRQAPGKGLEWVSVISPSGGQTFYADSVKGRFTISRDNSKNTLYLQMNSLRAEDTAVYYCARVYYYGMDVWGQGTTVTVSS
VL: DIQMTQSPATLSLSPGERATLSCRASQSVSSYLAWYQQKPGQAPRLLIYDASNRATGIPARFSGSGSETDFTLTISSLEPEDFAVYYCQQRSKWPRTFGQGTKLEIK
notes: VH entry is a raw phagemid read that runs into CH1
Take B2: the binding result in test [3] and in test [2] was “binds” throughout.

B3: anti-Tie1 antibody s-D11, IgG (antibody, V domains shown)
VH: EVQLLESGGGLVQPGGSLRLSCAASGFTFSGYAMWWVRQAPGKGLEWVSSISPSGGATAYADSVKGRFTISRDNSKNTLYLQMNSLRAEDTAVYYCARDAGSYYWGWFDPWGQGTLVTVSS
VL: B2 VL with V29I, A43P, N53S, A55V, S67F, E68G, Q89L, K93S
notes: VH entry is a raw phagemid read that runs into CH1; also called Di1
B3: the binding result in test [3] and in test [2] was “binds” throughout.
